Measurements as given in US6514942B1, “Methods and compositions for stimulating T-lymphocytes” (The Board of Regents, The University of Texas System, priority 1995, dated 2003).
Entries after “also recorded” stand apart in the source; their conditions may differ.

What was measured:
CTL-34 = assay: Recognition of HER-2 peptides by ovarian tumor associated CTL (lysis of peptide-sensitized targets); format: cell-based, human
Description: Target cells were labeled with ^51Cr (Na^51CrO4; Amersham, Arlington Heights, Ill.) for 90 min at 37° C. (Ioannides et al., 1991; Ioannides et al., 1991), or overnight in RPMI medium, containing 10% FCS, 100 μg/ml L-glutamine and 40 μg/ml gentamycin (RPMI-FCS), then washed and incubated with the effector cells in complete RPMI-FCS in an incubator with 5% CO2. Targets were incubated either with 25 μM of peptide overnight during labeling, or with 10 μM peptide for 2 h at 37° C. in RPMI-FCS, then washed three times before being incubated with effector cells. Separate controls for spontaneous and total lysis of targets were made for each peptide pulsed target (Ioannides et al., 1993; Fisk et al., 1994; Gammon et al., 1992). After 4-5 h of incubation 100 μl of supernatant were collected and counted. Percent lysis was calculated from the formula: 100×[(E−S)/(T−S)], were E=experimental release, S=release in the absence of CTL, T=release in 2 M HCl.

HLA-A2 of T2 cells = molecular target: T1, HLA-A2 of T2 cells (Homo sapiens, UniProt P04439, D140Y/D185E/D98H/E176V/E277Q/G131W/G231S/I119V/I121R/I166T/I218V/L300P/L318F/N151K/N90K/P208A/P217A/Q86G/Q94H/R138H/R169H/T345S); assay: Reactivity of MA2.1 mAb with T2 cells after culture with peptide (immunofluorescence, FL1); format: cell-based; settings: for FL1 of T2 cells stained with MA2.1 mAb: peptide 50 μg/ml, overnight culture in IMDM-FCS; for reactivity of MA2.1 mAb with HLA-A2: study repeated with peptides dissolved in DMSO
T1 construct: cell surface expression of HLA-A2 is lower (30-40%) than in normal LBL lines transfected with HLA-A2; endogenous in cells; host or cells: T2 (transport deletion mutant) human lymphoblastoid cells, obtained from Dr. Peter Creswell
Description: FIG. 5A. Effects of HER-2 peptides on reactivity of MA2.1 mAb with T2 cells. Fluorescence analysis and determination of FL1 were performed as described (Stauss et al., 1992). Peptides were added to T2 cells at 50 μg/ml (final concentration). After overnight culture, in IMDM-FCS, cells were washed and the levels of HLA-A2 expression were determined using HLA-A2 specific mAb.
mAbs to CD3 (OKT3-FITC), CD4 (OKT4-FITC) and CD8 (OKT8-FITC) were obtained from Ortho Diagnostic (Ortho, Raritan, N.J.), mAb W6/32 (anti-HLA, -A, -B, -C) from Dako (Dako-Dakopatts, Denmark); HLA-A2 reacting mAb BB7.2 and MA2.1 from ATCC. Immunofluorescence studies were performed as described in Example 1.
To determine whether these peptides and longer analogs affect HLA-A2 conformation as an indication of HLA-A2 binding, the effects of HER-2 peptides on the reactivity of conformationally dependent mAb MA2.1 and BB.7.2 were examined with HLA-A2 of T2 cells. The human cell line T2 has a defect affecting endogenous peptide loading of MHC class I molecules. As a consequence, cell surface expression of HLA-A2 is lower (30-40%) than in normal LBL lines transfected with HLA-A2 (e.g., C1R) but the reactivity of MA2.1 and BB.7.2 mAb is increased when certain HLA-A2 binding peptides are added to the culture medium (Anderson et al., 1993). Although most human MHC class I molecules cannot be induced at the low temperatures used for their murine counterparts because of fundamental structural differences between human and mouse class I (Anderson et al., 1993), the fact that they express few endogenous (mainly signal) peptides (Zweerink et al., 1993) increases the sensitivity of detection of peptide-HLA-A2 interaction.

[1] = test system: OVA-16 (HLA-A2+, HER-2high) ovarian tumor; assay: Cold target inhibition of OVA-16 lysis by 41.CD8+ CTL with peptide-pulsed C1R:A2 cells; format: cell-based, human; settings: cold:hot 2:1, E:T 10:1, 4- and 20-h assays
Description: (§1) FIG. 4A. Target specificity of the 41.CD8^+ CTL were tested for the ability to lyse 5^1Cr-labeled OVA-16 at an E:T ratio of 10:1. C1R:A2 cells (A2.1) were incubated with synthetic peptides (D125, C43, C85), washed, and used in cold target inhibition studies at a cold:hot ratio of 2:1. Cytotoxicity studies were performed for 5 hr. Results represent the mean of three determinations. The variability between samples was less than 10%. The differences between determination are statistically significant (P<0.03) as determined by Student's t test. Percentage inhibition is indicated in parentheses.
as §1, with “FIG. 4B.” for “FIG. 4A.”, “lyse ^51Cr-labeled” for “lyse 5^1Cr-labeled”, “for 20” for “for 5”
(§2) Tumor cells and fibroblasts were labeled with 200 μCi of ^51Cr (Na^51CrO4; Amersham, Arlington Heights, Ill.) for 90 min at 37° C. (Ioannides et al., 1991). Lymphoblastoid cells and HLA-A2 transfectants were labeled overnight in RPMI-FCS, then washed three times and incubated with effector cells in RPMI-FCS in an incubator with 5%. CO2 (Bednarek et al., 1991; Gammon et al., 1992). When peptide recognition was determined, targets were incubated with 25 μM of peptides overnight during ^51Cr labeling or with 10 μM peptide for 2 h at 37° C. in RPMI-FCS then washed three times before being incubated with effector cells. Separate controls for spontaneous and total lysis were made for each peptide-pulsed target (Ioannides et al., 1991; Bednarek et al., 1991; Gammon et al., 1992). After 4-5 h, 100 μl of supernatant was collected and counted. To determine maximum lysis in 20-h assays, plates were left undisturbed in the incubator and the supernatant was collected after overnight incubation. For cold target inhibition studies, C1R:A2 cells were preincubated with HER-2 or control peptides overnight, then washed and admixed with ^51Cr-labeled targets at 2:1 and 6:1 (cold:hot targets) ratios. Percentage lysis was calculated from the formula: 100×[(E−S)/(T−S)], where E is experimental release, S is release in the absence of CTL, and T is release in 2 M HCl.
To confirm that the 41.CD8^+ CTL line recognizes epitopes on HER-2^high tumors contained on peptides used for stimulation, cold target inhibition studies were performed. […]

C1R:A2 cells [2] = assay: Ag specificity of the 41.CD8+ CTL line on peptide-pulsed targets; format: cell-based, human; settings: peptide-pulsed C1R:A2, E:T 10:1
Description: FIG. 2A. Ag specificity of the 41.CD8^+ CTL line. C1R:A2 cells were pre-pulsed with either HER-2 peptides or control MUC-1 peptides before being incubated with effectors. The effector to target ratio was 10:1. C1R:A1 and C1R:A3 targets were pre-pulsed with the same peptides in the same conditions as C1R:A2 cells. Results for C1R:A1 and C1R:A3 show the difference between specific lysis of targets preincubated with peptides and control C1R:A1 and C1R:A3 targets. Specific lysis of control C1R:A1 and C1R:A3 cells was less than 10% at the same E:T ratio. Shown in FIG. 2A are results after 4 hrs' incubation.
as §2
These cultures were propagated and expanded by periodic cycles of restimulation with peptide-pulsed fresh autologous PBMC as antigen-presenting cells. After the fourth stimulation cells were gradually adapted to growth in RPMI-FCS by replacing 25% of the culture medium every 3 days with RPMI-FCS over a period of 2 weeks. CD3^+CD8^+CD4^− cells were isolated from bulk CTL cultures by positive selection on anti-CD8 mAb-coated culture flasks (AIS Micro CELLector, Applied Immune Sciences, Menlo Park, Calif.) as described (Letessier et al., 1991). Isolated CD8^+ cells were restimulated with HER-2 peptide-pulsed PBMC, either autologous or in some instances allogeneic that matched only HLA-A2 with the responding cells. […]

[3] = molecular target: T2, HLA-A2 on indicator T2 cells (Homo sapiens, UniProt P04439, D140Y/D185E/D98H/E176V/E277Q/G131W/G231S/I119V/I121R/I166T/I218V/L300P/L318F/N151K/N90K/P208A/P217A/Q86G/Q94H/R138H/R169H/T345S); assay: Stabilization of HLA-A2 expression on indicator line T2; format: cell-based; settings: indicator T2 cells
T2 construct: cell surface expression of HLA-A2 is lower (30-40%) than in normal LBL lines transfected with HLA-A2; endogenous in cells; host or cells: T2 (transport deletion mutant) human lymphoblastoid cells, obtained from Dr. Peter Creswell
Text: Since HER-2 is a self-antigen, during thymic selection, a number of T-cells carrying receptors with high affinity for the HLA-peptide complex are silenced either by elimination ro tolerization. A pre-condition for induction of a high affinity TCR-(MHC+peptide) interactions, is a stable (MHC+peptide) complex. […] However, stabilization of HLA-Class I binding by exogenously added peptide is dependent on introduction of dominant anchors in positions P2 and P9 which are not recognized by TCR.
Peptide D113, […] (SEQ ID NO:17), is the natural nonapeptide […].

C1R:A2 cells [4] = assay: In vitro induction of peptide-reactive CTL from PBMC, 51Cr release on peptide-pulsed C1R:A2; format: cell-based, human; settings: PBMC stimulated with the peptide
three HLA-A2+ CTL lines = assay: Recognition of nonapeptides by CTLs associated with and lysing ovarian tumors; format: cell-based, human; settings: for CTL lines recognizing the peptide: of three HLA-A2+ CTL lines; for designation based on the levels of lysis induced: three HLA-A2+ CTL lines

CLTSTVQLV [Peptide E90, HER-2:788-796]
% of C85 (target lysis by CTL in the presence of peptide as % of positive control C85) (CTL-34): 1.149 % of C85

DLGMGAAKGL [Peptide D99, decapeptide HER-2:1089-1098]
FL1 of T2 cells stained with MA2.1 mAb (HLA-A2 of T2 cells): slight increase in FL1

EIWTHSTKV [Peptide E39, reference compound]
FL1 of T2 cells stained with MA2.1 mAb (HLA-A2 of T2 cells): moderate increase in FL1

ELVSEFSKV [Peptide C83, C85 analog with strengthened P9 and P8]
FL1 of T2 cells stained with MA2.1 mAb (HLA-A2 of T2 cells): did not increase further the FL1

GLTSAPDTRV [Peptide D125, control analog of Muc-1 core peptide (Muc-1:8-17) with introduced HLA-A2 anchors, reference compound]
inhibition of tumor lysis by peptide-pulsed cold targets [1]: inability of C1R:A2 cells alone or pulsed with D125 to mediate the same inhibition
recognition by 41.CD8+ CTL line (C1R:A2 cells [2]): at a much lesser extent

GLYQGCQVV [Peptide D115, HER-2:48-56(48H→G) analog]
stabilization of HLA-A2 [3]: significantly higher improvement
Ag specificity of CTL response induced by the peptide (C1R:A2 cells [4]): less specific CTL than D96/D97
FL1 of T2 cells stained with MA2.1 mAb (HLA-A2 of T2 cells): increased FL1 even further; also recorded: higher increase in reactivity of MA2.1 mAb with HLA-A2 than D96/D97
reactivity of MA2.1 mAb with HLA-A2 (HLA-A2 of T2 cells): unable to increase reactivity

LLSLALMLL [Peptide E41, reference compound]
FL1 of T2 cells stained with MA2.1 mAb (HLA-A2 of T2 cells): failed to induce an increase in FL1

LQVFETLEEITGYL [Peptide D120, HER-2:397-410]
FL1 of T2 cells stained with MA2.1 mAb (HLA-A2 of T2 cells): increased the FL1 only slightly

LVSEFSRMARDPQ [Peptide B69, HER-2:972-984]
FL1 of T2 cells stained with MA2.1 mAb (HLA-A2 of T2 cells): failed to significantly increase FL1

NLGPWIQQV [Peptide E38, reference compound]
FL1 of T2 cells stained with MA2.1 mAb (HLA-A2 of T2 cells): very high increase in FL1

PLQPEQLQV [Peptide E77, HER-2:391-399]
% of C85 (target lysis by CTL in the presence of peptide as % of positive control C85) (CTL-34): 0.300 % of C85
CTL lines recognizing the peptide (three HLA-A2+ CTL lines): 2/3
designation based on the levels of lysis induced (three HLA-A2+ CTL lines): moderate

QLMPYGCLL [Peptide E71, HER-2:798-806]
% of C85 (target lysis by CTL in the presence of peptide as % of positive control C85) (CTL-34): 0.600 % of C85
CTL lines recognizing the peptide (three HLA-A2+ CTL lines): 2/3
designation based on the levels of lysis induced (three HLA-A2+ CTL lines): high

QLQVFETLEEI [Peptide D122, HER-2:396-406]
FL1 of T2 cells stained with MA2.1 mAb (HLA-A2 of T2 cells): increased the FL1 only slightly

RIAWARTEL [Peptide E37, reference compound]
FL1 of T2 cells stained with MA2.1 mAb (HLA-A2 of T2 cells): failed to affect MA2.1 epitope expression

RLLYQGCQVV [Peptide D114, HER-2:47-56(48H→L) analog]
stabilization of HLA-A2 [3]: little improvement on stabilization of HLA-A2
Ag specificity of CTL response induced by the peptide (C1R:A2 cells [4]): lacked Ag specificity
FL1 of T2 cells stained with MA2.1 mAb (HLA-A2 of T2 cells): increased FL1 even further; also recorded: higher increase in reactivity of MA2.1 mAb with HLA-A2 than D96/D97
reactivity of MA2.1 mAb with HLA-A2 (HLA-A2 of T2 cells): unable to increase reactivity

SLADPAHGV [Peptide D132, control analog of Muc-1 core peptide with introduced P2 anchor, reference compound]
recognition by 41.CD8+ CTL line (C1R:A2 cells [2]): at a much lesser extent

SLALMLLWL [Peptide E40, reference compound]
FL1 of T2 cells stained with MA2.1 mAb (HLA-A2 of T2 cells): failed to induce an increase in FL1

VLVKSPNHV [Peptide E89, HER-2:851-859]
% of C85 (target lysis by CTL in the presence of peptide as % of positive control C85) (CTL-34): 1.149 % of C85
CTL lines recognizing the peptide (three HLA-A2+ CTL lines): 2/3
designation based on the levels of lysis induced (three HLA-A2+ CTL lines): high
